Measured values published in patent US20220041738A1 (SAITAMA MEDICAL UNIVERSITY, published 2022).
Substitutions are numbered along the chain they refer to.

Assays:
Assay in all cases: immunofluorescence (legend of FIG. 4)
[1] = molecular target: T1, human ALK2-P197_F198delinsL on cells (human, UniProt Q04771 21-509)
T1 construct: also called delP197_F198insL
T1 sequence: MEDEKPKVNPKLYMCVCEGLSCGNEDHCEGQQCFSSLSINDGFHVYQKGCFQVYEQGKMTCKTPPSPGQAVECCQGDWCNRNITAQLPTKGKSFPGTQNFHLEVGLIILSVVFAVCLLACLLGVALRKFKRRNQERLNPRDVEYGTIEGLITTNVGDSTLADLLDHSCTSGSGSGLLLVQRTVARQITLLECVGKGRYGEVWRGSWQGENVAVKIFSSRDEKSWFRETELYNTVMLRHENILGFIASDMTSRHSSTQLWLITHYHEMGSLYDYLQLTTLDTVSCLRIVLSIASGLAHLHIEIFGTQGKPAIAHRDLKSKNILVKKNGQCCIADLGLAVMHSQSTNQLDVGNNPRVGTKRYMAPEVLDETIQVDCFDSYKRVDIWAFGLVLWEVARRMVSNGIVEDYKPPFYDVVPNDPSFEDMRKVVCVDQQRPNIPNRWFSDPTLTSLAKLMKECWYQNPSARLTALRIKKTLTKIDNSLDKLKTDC
Procedure: (§1) Mouse C2C12 cells were seeded into a 96-well plate (Greiner Bio-One) at 0.5×10³ cells/well, and cultured in 15% FBS-containing DMEM medium overnight under the conditions of 5% CO₂ at 37° C. On the following day, the C2C12 cells were transfected with each of a wild-type human ALK2 cDNA integrated into pcDEF3; pcDEF3/human ALK2-L196P, pcDEF3/human ALK2-P197_F198delinsL, pcDEF3/human ALK2-R202I, pcDEF3/human ALK2-R206H, pcDEF3/human ALK2-Q207E, pcDEF3/human ALK2-R258S, pcDEF3/human ALK2-G325A, pcDEF3/human ALK2-G328E, pcDEF3/human ALK2-G328R, pcDEF3/human ALK2-G328W, pcDEF3/human ALK2-G356D, and pcDEF3/human ALK2-R375P, which are variants identified in FOP; and pcDEF3 as a control, using Lipofectamine 2000 (Invitrogen), and further cultured overnight.
(§2) The C2C12 cells were fixed with 10% neutral formalin (Nacalai Tesque, Japan) for 20 minutes at room temperature, and then blocked with 10% goat normal serum for 30 minutes. After the blocking agent was removed, purified IgG diluted to 10 μg/mL with the blocking agent was added, and the cells were left for 1 hour at room temperature. After the cells were washed with PBS three times, Goat Alexa 594-conjugated anti-rat IgG (Invitrogen) diluted to 1:1000 with the blocking agent was added, and the cells were left for 1 hour at room temperature. After the cells were washed with PBS three times, the cells were fixed with 10% neutral formalin for 15 minutes at room temperature, and nuclear-stained with DAPI (LifeTechnologies). Fluorescent signals were analyzed with a fluorescence microscope BZ-9000 (Keyence).

[2] = molecular target: T2, human ALK2-G356D on cells (human, UniProt Q04771 21-509)
T2 sequence: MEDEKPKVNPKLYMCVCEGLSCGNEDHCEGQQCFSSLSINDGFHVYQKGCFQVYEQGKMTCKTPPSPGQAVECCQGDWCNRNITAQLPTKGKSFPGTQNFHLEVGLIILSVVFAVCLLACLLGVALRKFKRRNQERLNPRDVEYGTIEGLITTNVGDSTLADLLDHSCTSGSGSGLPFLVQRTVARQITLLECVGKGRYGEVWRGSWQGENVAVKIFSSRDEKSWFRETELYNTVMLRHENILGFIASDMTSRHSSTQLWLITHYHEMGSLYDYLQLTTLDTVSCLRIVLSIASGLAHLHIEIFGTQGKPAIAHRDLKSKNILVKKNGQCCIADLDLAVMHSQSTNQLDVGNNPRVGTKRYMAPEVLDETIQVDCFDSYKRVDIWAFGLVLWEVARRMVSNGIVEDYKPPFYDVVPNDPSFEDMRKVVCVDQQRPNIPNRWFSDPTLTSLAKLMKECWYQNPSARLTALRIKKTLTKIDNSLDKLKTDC
Procedure: as §1, §2

[3] = molecular target: T3, human ALK2-R258S on cells (human, UniProt Q04771 21-509)
T3 sequence: T2 sequence with R238S, D336G
Procedure: as §1, §2

[4] = molecular target: T4, human ALK2-L196P on cells (human, UniProt Q04771 21-509)
T4 sequence: T2 sequence with L176P, D336G
Procedure: as §1, §2

Measured: binding result

B1: rat anti-ALK2 monoclonal antibody A2-15A (antibody, V domains shown)
VH: EVQLVESGGGLVQPGRSLKLSCAASGFTFSHYYMAWVRQAPTKGLEWVASITNSGGSINYRDSVKGRFTISRDNAKSTLYLQMDSLRSEDTATYYCTREGGENYGGYPPFAYWGQGTLVTVSS
VL: DIVLTQSPALAVSLGQRATISCRANQGVSLSRYNLMHWYQQKPGQKPKLLIYRSSNLASGIPARFSGSGSGTDFTLTINPVQADDIATYYCQQSRESPFTFGAGTKLELKR
notes: Rat monoclonal IgG from a hybridoma; also called 15A6
binds: all assays above

B2: rat anti-ALK2 monoclonal antibody A2-11E (antibody, V domains shown)
VH: EVQLVETGGGLVQPGRSLKLSCVASGFTFSNYYMYWIRQAPGKGLEWISSINTDGGSTYYPDSVKGRFAISRDNAENTVYLQMNSLRSEDTATYYCAKSTPNIPLAYWGQGTLVTVSS
VL: DIQMTQSPSLLSASVGDRVTLSCKASQNIYKYLNWFQQKLGEAPKLLIYYSNSLQTGIPSRFSGSGSGTDFTLTISSLQPEDVAIYFCFQYSSGPTFGPGTKLELKR
notes: Rat monoclonal IgG from a hybridoma; also called 11E2
binds: all assays above
